Experimental data: article doi:10.1101/2021.02.22.432209

Target: GST-PreScission-p62 FIR 4P (human) (UniProt Q13501)
Experiment: SPR

LC3B (1-125), His8-TEV-LC3B (from UniProt Q9GZQ8 1-120) (natural protein)
KD estimated from the kinetics of the sensorgrams: 0.08 µM | half life: 20 min
